The values below come from US20040247614A1 (J DAVID GLADSTONE INSTITUTES, published 2004).

The test has as its target T1, GST alone (UniProt P08515 1-218 = GST).
T1 construct: Control in the GST pulldown
In words: GST pulldown, immunoblot with anti-Tat mAb. In general terms: Immunoblotting shows a protein as a band on a membrane.

T1 sequence (P08515 whole entry): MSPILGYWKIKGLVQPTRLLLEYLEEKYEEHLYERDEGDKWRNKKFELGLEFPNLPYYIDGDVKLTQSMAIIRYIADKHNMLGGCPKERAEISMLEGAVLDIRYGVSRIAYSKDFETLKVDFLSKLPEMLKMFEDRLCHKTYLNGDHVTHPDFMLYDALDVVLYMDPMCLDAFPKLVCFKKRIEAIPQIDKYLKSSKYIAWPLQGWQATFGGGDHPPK

B1: synthetic unacetylated Tat (other)
chain: MEPVDPRLEPWKHPGSQPKTACTTCYCKKCCFHCQVCFTTKALGISYGRKKRRQRRRPPQGSQTHQVSLSKQ
notes: range 1-72; also called nonacetylated Tat
Take B1: the binding result is “no binding”.

B2: synthetic Tat protein containing a single acetylated lysine at position 50 (AcTat) (other)
chain: B1 chain
modifications: acetylated lysine at position 50 (K50)
notes: range 1-72; also called acetylated Tat; K50-acetylated Tat
As to B2, the binding result was “no binding”.
